In patent publication US20220024981A1 (Novartis, published 2022) one finds IC50 and Maximum % inhibition data, which are given here for three molecules.

This assay addresses T1, Human PCSK9 Alexa Fluor 647 (human, UniProt Q8NBP7 31-692, limits assumed, Alexa Fluor 647 label (site not stated)).
T1 construct: Labelled tracer of the TR-FRET assay, 16 nM stock; also called proprotein convertase subtilisin/kexin type 9
In words: TR-FRET competition: PCSK9-Alexa Fluor 647 vs LDLR ECD-Eu kryptate. As to the method:
A Proxi plate-low volume assay plate was used for the assay. […] Following a 30 minute incubation, 5 uL of 4 nM Human LDLR extracellular domain-Europium Kryptate was added and the mixture was incubated for an additional 2 hours.
The TR-FRET signal was measured on an EnVision or PheraStar instrument with a 60 μs delay, 330 nm excitation and 665 nm emission (FRET), and 330 nm excitation and 615 nm (Europium). The FRET ratio (FRET/Europium) was used for calculations.

Bridge positions count the residues as written; N and C are the ends. Square brackets hold non-standard residues; d marks the D form. Bip = N[C@@H](Cc1ccc(-c2ccccc2)cc1)C(=O)O; Phe(4-Cl) = N[C@@H](Cc1ccc(Cl)cc1)C(=O)O; NMeA = CN[C@@H](C)C(=O)O

As usually defined, the IC50 is the midpoint of a concentration-inhibition curve.

T1 sequence (Q8NBP7 31-692 limits assumed): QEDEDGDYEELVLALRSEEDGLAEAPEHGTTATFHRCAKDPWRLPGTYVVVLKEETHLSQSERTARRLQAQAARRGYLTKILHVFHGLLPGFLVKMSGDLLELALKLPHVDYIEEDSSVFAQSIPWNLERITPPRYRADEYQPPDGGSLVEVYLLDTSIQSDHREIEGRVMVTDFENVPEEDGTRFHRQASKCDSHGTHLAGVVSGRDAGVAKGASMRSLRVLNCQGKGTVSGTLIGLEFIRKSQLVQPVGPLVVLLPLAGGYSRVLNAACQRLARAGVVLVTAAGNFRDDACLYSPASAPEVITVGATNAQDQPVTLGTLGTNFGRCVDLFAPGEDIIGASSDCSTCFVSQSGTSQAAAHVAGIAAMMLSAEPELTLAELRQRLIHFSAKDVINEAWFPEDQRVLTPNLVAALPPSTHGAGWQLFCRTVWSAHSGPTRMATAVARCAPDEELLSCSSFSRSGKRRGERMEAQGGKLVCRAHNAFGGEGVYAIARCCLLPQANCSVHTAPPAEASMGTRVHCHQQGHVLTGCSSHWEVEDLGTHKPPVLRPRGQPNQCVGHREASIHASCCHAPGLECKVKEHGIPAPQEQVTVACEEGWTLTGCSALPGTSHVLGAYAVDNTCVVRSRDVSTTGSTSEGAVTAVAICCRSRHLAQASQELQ

B1: Ac*-F-V-A-T-T-F-(N-Me)A-(p-Cl)F-(N-Me)A-N-A-P-C*-NH2 (peptide)
peptide: {CH2CO}-FVATTF[NMeA][Phe(4-Cl)][NMeA]NAPC-NH2
modifications: thioether N-13
SMILES: CC(C)[C@@H]1NC(=O)[C@H](Cc2ccccc2)NC(=O)CSC[C@@H](C(N)=O)NC(=O)[C@@H]2CCCN2C(=O)[C@H](C)NC(=O)[C@H](CC(N)=O)NC(=O)[C@H](C)N(C)C(=O)[C@H](Cc2ccc(Cl)cc2)NC(=O)[C@H](C)N(C)C(=O)[C@H](Cc2ccccc2)NC(=O)[C@H]([C@@H](C)O)NC(=O)[C@H]([C@@H](C)O)NC(=O)[C@H](C)NC1=O
notes: also called 2-5; Ex. No. 2-5
In the case of B1, the half-inhibitory concentration (IC50) turned out to be 1.1 nM and the Maximum % inhibition turned out to be 46%.

Regarding {CH2CO}-FVPTT[Bip][NMeA][Bip][NMeA]EAPC-NHEt (thioether N-13, also called 3-3; Ex. No. 3-3) [Ac*-F-V-P-T-T-B-(N-Me)A-B-(N-Me)A-E-A-P-C*-NHEt], the half-inhibitory concentration (IC50) worked out at 2.2 nM.

B2: Ac*-F-V-P-T-T-B-(N-Me)A-B-(N-Me)A-A-A-P-C*-NHEt (peptide)
peptide: {CH2CO}-FVPTT[Bip][NMeA][Bip][NMeA]AAPC-NHEt
modifications: thioether N-13
SMILES: CCNC(=O)[C@@H]1CSCC(=O)N[C@@H](Cc2ccccc2)C(=O)N[C@@H](C(C)C)C(=O)N2CCC[C@H]2C(=O)N[C@@H]([C@@H](C)O)C(=O)N[C@@H]([C@@H](C)O)C(=O)N[C@@H](Cc2ccc(-c3ccccc3)cc2)C(=O)N(C)[C@@H](C)C(=O)N[C@@H](Cc2ccc(-c3ccccc3)cc2)C(=O)N(C)[C@@H](C)C(=O)N[C@@H](C)C(=O)N[C@@H](C)C(=O)N2CCC[C@H]2C(=O)N1
notes: also called 3-4; Ex. No. 3-4
Molecule B2 showed an IC50 of 1.4 nM and a Maximum % inhibition of 49%.
